Where “and” joins values, the source holds several entries; their conditions need not be identical. Equal entries are not always repeated.
What was measured:
Assay type in all cases: cell-based, Saccharomyces cerevisiae
[1] = test system: Z11-hexadecenoic acid; assay: in vivo bioconversion of Z11-hexadecenoic acid into Z11-hexadecenol by alcohol-forming reductases in S. cerevisiae
Text: S. cerevisiae W303 (MATA ura3-1 trp1-1 leu2-3_112 his3-11_15 ade2-1 can1-100) and BY4742 (MATa POX1::kanMX his3Δ1 leu2Δ0 lys2Δ0 ura3Δ0) were used as expression hosts. DNA sequences which encode fatty alcohol reductase variants were redesigned to optimize expression in S. cerevisiae (SEQ ID NOs: 1-3). Generated synthons (Genscript) were cloned into pESC-URA vector using BamHI-XhoI sites to facilitate protein expression utilizing the Gal1 promoter. The resulting plasmid constructs were used to transform W303, and positive transformants were selected on CM agar medium (with 2% glucose, and lacking uracil) (Teknova). To assess functional expression, two positive transformation clones that have been patched on CM agar medium (with 2% glucose, and lacking uracil) were used to seed CM liquid medium using a 24 deep-well plate format. […]
The lipids were extracted according to a modified procedure of Hagström et al. (2012) (Hagström, A. K., Liénard, M. A., Groot, A. T., Hedenström, E. & Löfstedt, C. Semi-Selective Fatty Acyl Reductases from Four Heliothine Moths Influence the Specific Pheromone Composition. PLoS One 7: e37230 (2012)). […] The trimethylsilyl-esters, which were generated by this method were subsequently analyzed by GC-MS analysis. […] A Z11-hexadecenol calibration curve shown in FIG. 9 was used to quantify the Z11-hexadecenol produced from yeasts. […]

[2] = test system: S. cerevisiae ΔOLE1; assay: ΔOLE1 growth complementation assay without UFA
Text: S. cerevisiae ΔOLE1 (MATA OLE1::LEU2 ura3-52 his4) was used as an expression host. A synthetic expression cassette termed pOLE1 (FIG. 10, SEQ ID NO: 4) which comprises the OLE1 promoter region (SEQ ID NOs: 5 and 6), nucleotides encoding for 27 N-terminal amino acids of the OLE1 leader sequence (SEQ ID NO: 7), and a VPS13 terminator sequence (SEQ ID NO: 8) was created, and cloned into pESC-URA vector in between SacI and EcoRI sites. To test the functionality of the pOLE1 cassette, Dasher GFP synthon was inserted in between SpeI and NotI sites to create pOLE1-GFP plasmid. Competent ΔOLE1 was transformed with pOLE1-GFP, and plated on CM-Ura glucose agar plate (Teknova) containing UFA (20 mm CM-URA glucose agar plate was coated with 100 μL CM-Ura glucose medium containing 1% tergitol, and 3 μL palmitoleic acid). […] Validation of ΔOLE1 complementation was performed by restoring OLE1 activity. Specifically, native S. cerevisiae OLE1 synthon was inserted into pOLE1 cassette devoid of the leader sequence to create pOLE1-OLE1 plasmid. After transformation of ΔOLE1, and selection on CM-Ura glucose agar containing UFA, single colonies were patched onto YPD and CM-Ura glucose without UFA. After incubation at 30° C. for 5 days, growth was observed (FIG. 11A-FIG. 11E). As expected, Dasher GFP expression could not complement ΔOLE1 growth without UFA (FIG. 11A-FIG. 11E). DNA sequences which encode for desaturase variants were synthesized (to include nucleotide changes which remove restriction sites used for cloning purposes), and cloned into pOLE1 using SpeI-NotI sites (Genscript, SEQ ID NOs: 9-13). Complementation assay of ΔOLE1 with insect desaturases were performed in the same way as with OLE1 desaturase.

[3] = test system: palmitic acid; assay: in vivo bioconversion of palmitic acid into (Z)-11-hexadecenoic acid in S. cerevisiae ΔOLE1; details: ΔOLE1, ~96 h in minimal medium containing palmitic acid
Method: To assess functional expression, two positive transformation clones that had been patched on CM-Ura glucose agar medium containing UFA were inoculated in 1.5 mL CM-Ura glucose liquid medium containing palmitic acid (in ethanol) at a final concentration of 300 mg/L, and with 6.7 g/L of YNB. For (z)-11-hexadecenoic isomer confirmation, a 20 mL culture was generated. Bioconversion assay proceeded for 96 h at 28° C. prior to GC-MS analysis.
Total lipid composition as well as the (Z)-11-hexadecenoic acid quantification was based on modified procedures by Moss et al. (1982) (Moss, C. W., Shinoda, T. & Samuels, J. W. Determination of cellular fatty acid compositions of various yeasts by gas-liquid chromatography. J. Clin. Microbiol. 16: 1073-1079 (1982)) and Yousuf et al (2010) (Yousuf, A., Sannino, F., Addorisio, V. & Pirozzi, D. Microbial Conversion of Olive Oil Mill Wastewaters into Lipids Suitable for Biodiesel Production. J. Agric. Food Chem. 58: 8630-8635 (2010)). The pelleted cells (in 1.5 mL plastic tubes), usually about 10 mg to 80 mg, were resuspended in methanol containing 5% (w/w) of sodium hydroxide. […]
The regioselectivity of biologically produced (Z)-11-hexadecenoic acid was determined by comparing the fragmentation patterns of the dimethyl disulfide (DMDS) derivative with the DMDS derivative of an authentic standard. […]

Molecule | activity toward Z11-hexadecenoic acid among the reductases tested ([1]; S. cerevisiae) | Z11-hexadecenol production ([1]; W303A, within 48 h of protein induction, 300 mg/L Z11-hexadecenoic acid) | rescue of ΔOLE1 growth without UFA ([2]; minimal medium (CM-Ura glucose) agar plate) | rescue of ΔOLE1 growth without UFA ([2]; rich medium (YPD) agar plate) | (Z)-9-hexadecenoic acid in C16-fatty acid [3] [%] | hexadecanoic acid in C16-fatty acid [3]
H. armigera reductase: Helicoverpa armigera alcohol-forming fatty acyl-CoA reductase, SEQ ID NO: 41 (protein, Helicoverpa armigera alcohol forming reductase (HaFAR)) MVVLTSKETKPSVAEFYAGKSVFITGGTGFLGKVFIEKLLYSCPDIENIYMLIREKKGLSVSERIKQFLDDPLFTRLKDKRPADLEKIVLIPGDITAPDLGINSENEKMLIEKVSVIIHSAATVKFNEPLPTAWKINVEGTRMMLALSRRMKRIEVFIHISTAYTNTNREVVDEILYPAPADIDQVHQYVKDGISEEDTEKILNGRPNTYTFTKALTEHLVAENQAYVPTIIVRPSVVAAIKDEPLKGWLGNWFGATGLTVFTAKGLNRVIYGHSSYIVDLIPVDYVANLVIAAGAKSSKSTELKVYNCCSSSCNPVTIGTLMSMFADDAIKQKSYAMPLPGWYIFTKYKWLVLLLTFLFQVIPAYVTDLSRHLIGKSPRYIKLQSLVNQTRSSIDFFTNHSWVMKADRVRELYASLSPADKYLFPCDPTDINWTHYIQDYCWGVRHFLEKKSYE | most active | ≤ 70 μM and ≤ 16 mg/L | – | – | – | –
S. cerevisiae OLE1: native S. cerevisiae palmitoyl:CoA/stearoyl:CoA (Z)-9-desaturase, positive control (protein, UniProt P21147 1-510, looked up) Acyl-CoA desaturase 1: MPTSGTTIELIDDQFPKDDSASSGIVDEVDLTEANILATGLNKKAPRIVNGFGSLMGSKEMVSVEFDKKGNEKKSNLDRLLEKDNQEKEEAKTKIHISEQPWTLNNWHQHLNWLNMVLVCGMPMIGWYFALSGKVPLHLNVFLFSVFYYAVGGVSITAGYHRLWSHRSYSAHWPLRLFYAIFGCASVEGSAKWWGHSHRIHHRYTDTLRDPYDARRGLWYSHMGWMLLKPNPKYKARADITDMTDDWTIRFQHRHYILLMLLTAFVIPTLICGYFFNDYMGGLIYAGFIRVFVIQQATFCINSLAHYIGTQPFDDRRTPRDNWITAIVTFGEGYHNFHHEFPTDYRNAIKWYQYDPTKVIIYLTSLVGLAYDLKKFSQNAIEEALIQQEQKKINKKKAKINWGPVLTDLPMWDKQTFLAKSKENKGLVIISGIVHDVSGYISEHPGGETLIKTALGKDATKAFSGGVYRHSNAAQNVLADMRVAVIKESKNSAIRMASKRGEIYETGKFF | – | – | rescued ΔOLE1 growth without exogenous UFA | highest level of growth | ~31.4 | approximately 68.6%
